Literature values as cited in PMC5871670.

How the values were obtained:
Factor XI (Homo sapiens) = Factor XI (Homo sapiens) (UniProt P03951)
[1] = molecular target: cytokeratin 1 (CK1) (Homo sapiens) (UniProt P04264); test: surface plasmon resonance
gC1q-R (Homo sapiens) = gC1q-R (Homo sapiens) (UniProt Q07021); test: surface plasmon resonance
uPAR (Homo sapiens) = uPAR (Homo sapiens) (UniProt Q03405); test: surface plasmon resonance
UniProt Q03405, sequence (Q03405 23-305): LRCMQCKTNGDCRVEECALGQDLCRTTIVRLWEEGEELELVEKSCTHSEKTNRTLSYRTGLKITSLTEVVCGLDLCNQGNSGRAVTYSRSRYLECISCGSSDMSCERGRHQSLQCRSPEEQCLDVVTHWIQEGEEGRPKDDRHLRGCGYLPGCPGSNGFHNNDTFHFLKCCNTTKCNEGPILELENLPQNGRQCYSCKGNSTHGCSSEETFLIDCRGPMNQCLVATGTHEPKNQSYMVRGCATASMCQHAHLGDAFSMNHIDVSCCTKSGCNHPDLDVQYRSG

UniProt Q07021, sequence (Q07021 74-282): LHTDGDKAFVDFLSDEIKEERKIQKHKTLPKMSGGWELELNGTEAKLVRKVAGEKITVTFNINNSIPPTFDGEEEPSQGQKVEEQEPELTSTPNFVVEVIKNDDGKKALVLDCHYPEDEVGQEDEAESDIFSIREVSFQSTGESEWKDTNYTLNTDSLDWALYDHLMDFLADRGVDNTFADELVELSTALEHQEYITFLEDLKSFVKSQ
UniProt P03951, sequence (P03951 388-625): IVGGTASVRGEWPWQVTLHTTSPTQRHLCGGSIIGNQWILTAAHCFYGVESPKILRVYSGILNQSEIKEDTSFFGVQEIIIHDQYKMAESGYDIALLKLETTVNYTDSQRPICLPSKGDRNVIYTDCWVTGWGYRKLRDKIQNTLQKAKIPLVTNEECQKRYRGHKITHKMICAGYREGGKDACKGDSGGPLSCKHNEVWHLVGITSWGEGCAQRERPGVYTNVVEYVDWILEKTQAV
UniProt P04264, sequence (P04264 2-644): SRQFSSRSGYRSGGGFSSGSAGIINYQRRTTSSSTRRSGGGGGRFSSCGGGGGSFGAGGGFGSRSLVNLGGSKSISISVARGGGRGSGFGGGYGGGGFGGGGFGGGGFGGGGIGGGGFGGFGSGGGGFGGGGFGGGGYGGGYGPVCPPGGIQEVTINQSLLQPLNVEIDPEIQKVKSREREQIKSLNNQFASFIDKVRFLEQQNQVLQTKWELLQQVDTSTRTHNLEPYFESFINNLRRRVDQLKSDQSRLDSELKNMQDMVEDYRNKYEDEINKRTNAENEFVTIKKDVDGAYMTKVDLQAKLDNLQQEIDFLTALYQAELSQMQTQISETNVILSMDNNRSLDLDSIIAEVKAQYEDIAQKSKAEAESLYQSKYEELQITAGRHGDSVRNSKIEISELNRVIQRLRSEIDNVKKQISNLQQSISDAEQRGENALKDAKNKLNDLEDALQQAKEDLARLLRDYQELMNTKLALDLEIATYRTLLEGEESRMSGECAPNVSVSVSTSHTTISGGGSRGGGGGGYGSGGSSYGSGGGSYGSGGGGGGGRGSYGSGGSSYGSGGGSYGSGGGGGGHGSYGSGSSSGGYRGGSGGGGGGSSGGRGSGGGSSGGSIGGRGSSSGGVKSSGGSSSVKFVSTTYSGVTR

For GPIbα (from UniProt P07359), the Kd (Factor XI (Homo sapiens)) is given as 52 nM.
In the case of “high molecular weight kininogen (HK) (from UniProt P01042)”, the Kd [1] is given as 15 nM, the Kd (gC1q-R (Homo sapiens)) is given as 0.8 nM and the Kd (uPAR (Homo sapiens)) is given as 2300 nM.
